Our source for the Kd values is publication PMC3314626 (2012).

Numbering of substitutions follows the chain as printed.

The target in the test is T1, ALC1 peptide (Homo sapiens, UniProt O94985).
T1 chain: KENEMDWDDSALTI
The experiment in a line: ITC.

B1: KLC1 TPR (protein)
chain: GGYEIPARLRTLHNLVIQYASQGRYEVAVPLCKQALEDLEKTSGHDHPDVATMLNILALVYRDQNKYKDAANLLNDALAIREKTLGKDHPAVAATLNNLAVLYGKRGKYKEAEPLCKRALEIREKVLGKDHPDVAKQLSNLALLCQNQGKYEEVEYYYQRALEIYQTKLGPDDPNVAKTKNNLASCYLKQGKFKQAETLYKEILTRAHEREFGSVDDENKPIWMHAEEREECKGKQKDGTSFGEYGGWYKACKVDSPTVTTTLKNLGALYRRQGKFEAAETLEEAAMRSRKQG
With B1, the Kd came out at 44 µM. In other words, the double-digit micromolar range.

B2: KLC1 TPR (protein)
chain: B1 chain with S139N
B2 gave a Kd of 50 µM. The Kd values of the last two molecules are within 1.5-fold of each other.
